What all share (assay): two-hybrid
Assay [1] addresses pGBKT7-CcLim15CT 104-345 (Coprinus cinereus).
Assay [2] has as its target pGBKT7-CcLim15 (Coprinus cinereus Lim15/Dmc1, residues 1-345, fused to the GAL4 DNA-binding domain) (Coprinus cinereus).
For assay [3], the target named is pGBKT7-CcLim15NT 1-104 (Coprinus cinereus).

This passage reports β-galactosidase activity results from article PMC1253830.

Turning to “pGADT7-CcTopIICT 1066-1569 (domain or fragment)”, the figures for the β-galactosidase activity in assay [1], in assay [2] and in assay [3] were 3.49, 16.5 and less than 1, respectively.
As to “pGADT7-CcTopIIMD 751-1065 (domain or fragment)”, the β-galactosidase activity in assay [2] is less than 1.
Same read-out and setting: under “pGADT7-CcTopIINT 1-750 (domain or fragment)” stands less than 1.
